Test results reported in paper PMC3317225, “MsDpo4—a DinB Homolog from Mycobacterium smegmatis—Is an Error-Prone DNA Polymerase That Can Promote G:T and T:G Mismatches” (Journal of Nucleic Acids, 2012).

Experiments:
Test in all cases: steady-state primer extension, 6-FAM labelled primer, gel, Lineweaver-Burk
Assay type in all cases: biochemical, Mycolicibacterium smegmatis
[1] = substrate: Cc1cn([C@H]2C[C@H](O)[C@@H](COP(=O)(O)OP(=O)(O)OP(=O)(O)O)O2)c(=O)[nH]c1=O; settings: template dG (mismatch G:T, misincorporation), 20 nM DNA T1P1, 10 nM enzyme, Mg2+, pH 8.0, 37°C (given for the primer extension assay), number in parentheses is standard error
Text: (§1) steady-state primer extension, 6-FAM labelled primer, gel, Lineweaver-Burk on MsDpo4

[2] = substrate: Nc1ncnc2c1ncn2[C@H]1C[C@H](O)[C@@H](COP(=O)(O)OP(=O)(O)OP(=O)(O)O)O1; settings: template dT (correct pair T:A), 20 nM DNA T2P1, 1 nM enzyme, Mg2+, pH 8.0, 37°C (given for the primer extension assay), number in parentheses is standard error
Text: as §1

[3] = substrate: Nc1nc2c(ncn2[C@H]2C[C@H](O)[C@@H](COP(=O)(O)OP(=O)(O)OP(=O)(O)O)O2)c(=O)[nH]1; settings: template dT (mismatch T:G, misincorporation), 20 nM DNA T2P1, 10 nM enzyme, Mg2+, pH 8.0, 37°C (given for the primer extension assay), number in parentheses is standard error
Text: as §1

[4] = substrate: Nc1ccn([C@H]2C[C@H](O)[C@@H](COP(=O)(O)OP(=O)(O)OP(=O)(O)O)O2)c(=O)n1; settings: template dG (correct pair G:C), 20 nM DNA T1P1, 1 nM enzyme, Mg2+, pH 8.0, 37°C (given for the primer extension assay), number in parentheses is standard error
Text: as §1

B1: MsDpo4 (Mycolicibacterium smegmatis MC2 155) (protein)
chain: MTKWVLHVDLDQFLASVELRRRPDLRGQPVIVGGSGDPSEPRKVVTCASYEAREFGVHAGMPLRAAARRCPDATFLPSDPAAYDEASEQVMGLLRDLGHPLEVWGWDEAYLGADLPDESDPVEVAERIRTVVAAETGLSCSVGISDNKQRAKVATGFAKPAGIYVLTEANWMTVMGDRPPDALWGVGPKTTKKLAAMGITTVADLAVTDPSVLTTAFGPSTGLWLLLLAKGGGDTEVSSEPWVPRSRSHVVTFPQDLTERREMDSAVRDLALQTLAEIVEQGRIVTRVAVTVRTSTFYTRTKIRKLPAPSTDAGQIVDTALAVLDQFELDRPVRLLGVRLELAMDDVPRPAVTAGT
notes: msmeg_1014 in pGEX6P1, expressed as GST-MsDpo4 fusion in bacteria; single-chain Y-family polymerase
Km [1]: 165.5 (39.70) μM | Km [2]: 5.5 (1.54) μM | Km [3]: 166.5 (39.01) μM | Km [4]: 4.3 (0.69) μM
